Experimental findings from patent publication US20190031761A1 (SAMSUNG LIFE PUBLIC WELFARE FOUNDATION, published 2019) are described below.

The target in test [1] is T1, EGFRvIII expressed in cells (vIII352T1 cells; 626 patient-derived cells) (human, UniProt P00533 25-1210).
T1 construct: whole, on cells; On vIII352T1 cells (EGFR-/EGFRvIII+) in FACS and cytotoxicity assays
Kind of test: FACS on vIII352T1 cells (EGFRvIII only), Alexa Fluor 488 anti-human IgG.

Test [2] deals with EGFR expressed on cells (780 patient-derived cells; normal human epidermal keratinocytes) (human, UniProt P00533 25-1210). Kind of test: FACS on normal human epidermal keratinocytes (EGFR only), Alexa Fluor 488 anti-human IgG.
Test [3] concerns the target T2, EGFRvIII recombinant protein with Fc tag, produced in-house (human).
T2 construct: Produced in Expi293 cells; also called EGFRvIII antigen
Kind of test: SPR (Biacore T200), antibody captured with human Fab capture kit, EGFRvIII antigen 0.25 nM to 256 nM as analyte.

Test [4] has as its target T3, recombinant human EGFR/ErbB1 Fc chimera protein (R&D systems, 344-ER) (human, UniProt P00533 25-645).
T3 construct: Bought protein; also called EGFR recombinant protein; Fc part of the bought chimera not given
Kind of test: SPR (Biacore T200), B4A3 captured as ligand, rhEGFR-Fc as sample, 25 C, 1:1 Binding fit to sensorgrams that hardly leave the baseline.

T2 sequence (chain, as listed by the source limits assumed): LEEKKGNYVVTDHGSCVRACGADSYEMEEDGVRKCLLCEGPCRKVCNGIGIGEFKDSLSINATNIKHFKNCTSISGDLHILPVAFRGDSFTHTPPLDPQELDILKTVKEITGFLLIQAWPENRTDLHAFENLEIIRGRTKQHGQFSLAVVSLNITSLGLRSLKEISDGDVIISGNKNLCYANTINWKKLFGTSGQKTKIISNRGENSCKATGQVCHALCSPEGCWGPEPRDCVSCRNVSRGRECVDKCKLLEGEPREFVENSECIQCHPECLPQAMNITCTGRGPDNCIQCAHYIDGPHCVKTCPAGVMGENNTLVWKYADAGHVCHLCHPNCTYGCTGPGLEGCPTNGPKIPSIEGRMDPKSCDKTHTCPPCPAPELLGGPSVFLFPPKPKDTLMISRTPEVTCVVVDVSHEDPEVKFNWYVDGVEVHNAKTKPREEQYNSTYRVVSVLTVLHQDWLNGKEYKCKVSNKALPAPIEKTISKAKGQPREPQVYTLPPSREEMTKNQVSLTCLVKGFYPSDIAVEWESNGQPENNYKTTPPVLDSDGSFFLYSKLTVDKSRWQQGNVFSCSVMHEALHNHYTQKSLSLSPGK

B1: B4A3 antibody (human IgG1) (antibody, V domains shown)
VH: EVQLLESGGGLVQPGGSLRLSCAASGFTFSNYYMSWVRQAPGKGLEWVSGTSPNGGSKYYADSVKGRFTISRDNSKNTLYLQMNSLRAEDTAVYYCAKGRRKLRATRFDYWGQGTLVTVSS
VL: QSVLTQPPSASGTPGQRVTISCTGSSSNIGNNYVSWYQQHPGTAPKLLIYSDSNRPSGVPDRFSGSKSGTSASLAISGLRSEDEADYYCATWDASLSAYVFGGGTKLTVL
notes: also called B4A3 IgG; B4A3 human IgG1
Broadly, the EC50 (read off the curve) is the concentration that produces a half-maximal response. High values mean weaker potency, low ones greater potency. For orientation: Kd means the concentration at which binding is half-saturated. Broadly, the koff is a measure of how fast the partners let go of each other. What is called kon is a measure of how fast the partners come together. In the case of B1, in test [1], the “EC50 (read off the curve)” value is about 0.04 nM. Also, the “EC50 (read off the curve)” value in test [2] is about 0.03 nM. In addition, in test [3], the Kd is 4.38 nM, the off-rate (koff) is 0.000248 s⁻¹ and the on-rate constant (kon) was determined as 56600 M⁻¹ s⁻¹. Besides, in test [4], the off-rate (koff) is 0.00801 s⁻¹ and the kon is 632 M⁻¹ s⁻¹.
